We go through 2 molecules from PMC8155666, “Engineering Promiscuous Alcohol Dehydrogenase Activity of a Reductive Aminase AspRedAm for Selective Reduction of Biobased Furans” (Frontiers in Chemistry, 2021).

In one data set the test system is T1, O=Cc1ccc(CO)o1.
T1 construct: recombinant, purified
The experiment in a line: purified protein. The format is biochemical, Aspergillus oryzae. To be noted: 0.2 mM NADH, 100 mM Tris-HCl pH 8, 30°C, 1 μM-5 mM HMF, 37 μg/ml enzyme.

Substrate in the data set “purified protein”: O=Cc1ccc(CO)o1
Nature of the data set: purified protein. The settings on record: 0.2 mM NADH, 100 mM Tris-HCl pH 9, 30°C, 1 μM-5 mM HMF, 43 μg/ml enzyme.

For the molecule “AspRedAm (Aspergillus oryzae RIB40; N93A)”, in the data set on O=Cc1ccc(CO)o1, the Km is 4.1 ± 0.7 ×10^-3 mM, the kcat amounted to 0.0967 ± 0.0076 s⁻¹ and the kcat/Km was 23600 ± 2000 M⁻¹ s⁻¹.

B1: AspRedAm (Aspergillus oryzae RIB40) (protein)
chain: MSKHIGIFGLGAMGTALAAKYLEHGYKTSVWNRTTAKAIPLVEQGAKLASTISEGVNANDLIIICLLNNQVVEDALRDALQTLPSKTIVNLTNGTPNQARKLADFVTSHGARYIHGGIMAVPTMIGSPHAVLLYSGESLELFQSIESHLSLLGMSKYLGTDAGSASLHDLALLSGMYGLFSGFLHAVALIKSGQDTSTTATGLLPLLTPWLSAMTGYLSSIAKQIDDGDYATQGSNLGMQLAGVENIIRAGEEQRVSSQMILPIKALIEQAVGEGHGGEDLSALIEYFKVGKNVD
As to B1, in “purified protein”, the Km is reported as 1.3 ± 0.2 ×10^-3 mM, the kcat stood at 0.0175 s⁻¹ and the kcat/Km worked out at 13100 M⁻¹ s⁻¹.

In general, kcat refers to the number of substrate molecules converted per active site and unit of time at saturation. By kcat/Km is commonly meant the second-order rate constant that governs catalysis at low substrate concentration.
